According to publication PMC4992955, “Pichia pastoris Fep1 is a [2Fe-2S] protein with a Zn finger that displays an unusual oxygen-dependent role in cluster binding”:

T1: MBP-Fep1 (41-192) WT (Pichia pastoris (GS115), UniProt A4VAR6 41-192)
T1 sequence: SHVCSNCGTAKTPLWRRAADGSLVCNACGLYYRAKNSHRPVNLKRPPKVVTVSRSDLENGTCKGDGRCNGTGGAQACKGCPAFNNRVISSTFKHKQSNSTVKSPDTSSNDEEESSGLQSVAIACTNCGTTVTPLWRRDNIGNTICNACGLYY


Tests used:
[1] = target: Flag-Fep1 (1–208) WT (Pichia pastoris); assay: SEC; analytical gel-filtration on Superdex-75 (10/300) in 25 mM MOPS pH 7, 150 mM NaCl; calibrated with conalbumin, ovalbumin, carbonic anhydrase and RNase A
[2] = target: Flag-Fep1 (1–208) WT (Pichia pastoris); assay: SAXS; solution SAXS at ESRF beamline BM29, 293 K, three dilutions of each sample; as-purified and after reconstitution of the [2Fe-2S] cluster; molecular weights from ab initio calculation with ATSAS
MBP-Fep1 (41-192) WT = target: T1, MBP-Fep1 (41-192) WT; assay: EMSA; 5 uM ZnSO4, 5 uM FeCl3; 12.5 mM Hepes pH 7.9, 75 mM NaCl, 4 mM MgCl2, 1 mM EDTA, 10% glycerol, 4 mM Tris-HCl pH 7.9, 0.6 mM DTT, 1 ug poly(dI-dC)2, 5 uM ZnSO4, 5 uM FeCl3; 100-250 ng protein, 1 ng probe, 20 min at 25 C; 6% native gel at 4 C; details: protein: recombinant; tags: MBP fusion; label: 32P end-label (alpha-32P); 5' overhangs: 4 nt on S3, 3 nt on S4 as printed; 32 bp duplex

Molecule	stoichiometry N [1]	stoichiometry N [2]	binding result (MBP-Fep1 (41-192) WT)
Flag-Fep1 (1–208) WT (domain or fragment)	2	2	
fetgata2/fetgata1 (FET3 promoter GATA probe) (dsDNA) DNA 1: GGCGATTGAACTGATAATTTTACTAAATAAGTGGAA DNA 2: GGATTCCACTTATTTAGTAAAATTATCAGTTCAAT			binds
